PMC4655416

Columns and labels:
[1] = target: CeHsp90-MC (middle and C-terminal domains of C. elegans Hsp90) (C. elegans)
[2] = target: CeHsp90-MC (middle and C-terminal domains of C. elegans Hsp90) (C. elegans); experiment: AUC; sedimentation velocity with UV/VIS absorbance optics (OD280); PPH-5 titrated to a constant concentration of CeHsp90 (4 μM) or CeHsp90-MC (3.5 μM); global fit to sequential binding of a first and second PPH-5

- kcat of PPH-5 towards the model peptide KRpTIRR (50 μM) with 3 μM Hsp90-MC [1]: 0.161 s⁻¹
- stoichiometry N (PPH-5 per CeHsp90-MC dimer) [2]: 2
B1: protein phosphatase 5 from C. elegans (PPH-5) (enzyme)
chain: MAATITDDIVATVLESIEEKSYEDEKEKAGMIKDEANQFFKDQVYDVAADLYSVAIEIHPTAVLYGNRAQAYLKKELYGSALEDADNAIAIDPSYVKGFYRRATANMALGRFKKALTDYQAVVKVCPNDKDARAKFDECSKIVRRQKFEAAISTDHDKKTVAETLDINAMAIEDSYDGPRLEDKITKEFVLQLIKTFKNQQKLHKKYAFKMLLEFYNYVKSLPTMVEITVPTGKKFTICGDVHGQFYDLCNIFEINGYPSETNPYLFNGDFVDRGSFSVETIFTMIGFKLLYPNHFFMSRGNHESDVMNKMYGFEGEVKAKYTQQMCDMFTETFCWLPLCHLINEKIFVCHGGLFKEDGVTLEDIRKTDRNRQPPDEGIMCDLLWSDPQPINGRSPSKRGVGCQFGPDVTSKWCETNGIEYVVRSHEVKPEGYEMHHNGQCFTVFSAPNYCDQMNNKGAFITITGDNLTPRFTPFDAVPHPKLPPMAYANSLFGFN
